{"source": "paper PMC5797668", "target": "HA-M2R-RLuc8 (M2 muscarinic receptor) (UniProt P08172)", "sequence (P08172 whole entry)": "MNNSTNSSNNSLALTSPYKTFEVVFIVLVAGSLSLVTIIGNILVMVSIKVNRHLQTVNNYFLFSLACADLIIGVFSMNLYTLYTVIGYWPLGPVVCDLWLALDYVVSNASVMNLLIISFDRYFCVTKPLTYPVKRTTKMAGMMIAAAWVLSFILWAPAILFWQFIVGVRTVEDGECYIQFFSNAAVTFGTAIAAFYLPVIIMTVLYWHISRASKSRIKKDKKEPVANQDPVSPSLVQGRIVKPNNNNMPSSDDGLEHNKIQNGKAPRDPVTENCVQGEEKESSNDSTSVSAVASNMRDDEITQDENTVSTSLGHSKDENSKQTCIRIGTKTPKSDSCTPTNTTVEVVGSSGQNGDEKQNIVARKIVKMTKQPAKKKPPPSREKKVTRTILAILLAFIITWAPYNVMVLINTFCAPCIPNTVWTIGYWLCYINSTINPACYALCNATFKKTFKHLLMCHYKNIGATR", "assay": "FRET or BRET", "data": [{"substance": "Venus-arrestin-3-Lys139Ile (on the Ala87Val base mutant) (natural protein)", "values": [{"measurement": "fold increase of basal net BRET (against the A87V base mutant)", "result": "> 3", "unit": "fold"}]}]}
